The target of data set [1] is CaMV RT RNase H mutant D421N (cauliflower mosaic virus).
Another data set has as its target CaMV RT (Cauliflower mosaic virus, UniProt A0A2D2PYL0 197-675). Kind of data set: gel filtration; 5 mM MgCl2; stable 1:1 complex; Gel filtration: 25 mM Hepes pH 7.5, 200 mM NaCl, 5% glycerol, 5 mM MgCl2, 1 mM DTT, 30 min on ice; crystals: protein in 20 mM Hepes pH 7.5, 200 mM NaCl, 5% glyc. Conditions: protein: recombinant; tags: none (N-terminal 6xHis-SUMO removed with Ulp1); 5' overhang 2 nt on RNA strand (GG), 22 bp.

Data on two molecules can be found in paper PMC11363490, “Structural and biochemical characterization of cauliflower mosaic virus reverse transcriptase”.

As for “cauliflower mosaic virus (CaMV) reverse transcriptase, wild type (from UniProt P03554 1-679) (enzyme)”, the RNase H cleavage efficiency on R40/D28, 1:1:1 mixture of wt RT:mutant RT:substrate, 120 min (against ∼18% for 1:1 wt enzyme:substrate) in data set [1] came to 60%.

B1: RNA-24/DNA-22 hybrid (DNA:RNA)
RNA: GGCAGUGGUCCAGCAGUGCGUAGC
DNA: GCTACGCACTGCTGGACCACTG
Regarding B1, in the data set with CaMV RT, the binding result is “binds”.
